In patent publication US12679878B2, “CRF2 receptor agonists and their use in therapy” (SANOFI, priority 2020, dated 2026):
Starred links: 1 amine or outer side, 2 acyl side, 3 side chain; linkers in the order of their positions; H or OH if unused. Non-standard residues stand in square brackets, D forms with d. Groups on a side chain read outwards from the residue. No end group written: not given here. *: point of attachment. C18 diacid = O=C(O)CCCCCCCCCCCCCCCCC(=O)*; γGlu = O=C(O)[C@H](CCC(=O)[*:2])N[*:1]; AEEA = NCCOCCOCC(=O)O; Aib = CC(C)(N)C(=O)O

B1: SEQ ID NO: 149 (peptide)
peptide: IVLSLD[dV]PIKLK([AEEA-AEEA-γGlu-C18 diacid])QILLKQERQKK[Aib]REQAETNKRILERV-NH2
modifications: N-terminus assumed
SMILES: CC[C@H](C)[C@H](N)C(=O)N[C@H](C(=O)N[C@@H](CC(C)C)C(=O)N[C@@H](CO)C(=O)N[C@@H](CC(C)C)C(=O)N[C@@H](CC(=O)O)C(=O)N[C@@H](C(=O)N1CCC[C@H]1C(=O)N[C@H](C(=O)N[C@@H](CCCCN)C(=O)N[C@@H](CC(C)C)C(=O)N[C@@H](CCCCNC(=O)COCCOCCNC(=O)COCCOCCNC(=O)CC[C@H](NC(=O)CCCCCCCCCCCCCCCCC(=O)O)C(=O)O)C(=O)N[C@@H](CCC(N)=O)C(=O)N[C@H](C(=O)N[C@@H](CC(C)C)C(=O)N[C@@H](CC(C)C)C(=O)N[C@@H](CCCCN)C(=O)N[C@@H](CCC(N)=O)C(=O)N[C@@H](CCC(=O)O)C(=O)N[C@@H](CCCNC(=N)N)C(=O)N[C@@H](CCC(N)=O)C(=O)N[C@@H](CCCCN)C(=O)N[C@@H](CCCCN)C(=O)NC(C)(C)C(=O)N[C@@H](CCCNC(=N)N)C(=O)N[C@@H](CCC(=O)O)C(=O)N[C@@H](CCC(N)=O)C(=O)N[C@@H](C)C(=O)N[C@@H](CCC(=O)O)C(=O)N[C@H](C(=O)N[C@@H](CC(N)=O)C(=O)N[C@@H](CCCCN)C(=O)N[C@@H](CCCNC(=N)N)C(=O)N[C@H](C(=O)N[C@@H](CC(C)C)C(=O)N[C@@H](CCC(=O)O)C(=O)N[C@@H](CCCNC(=N)N)C(=O)N[C@H](C(N)=O)C(C)C)[C@@H](C)CC)[C@@H](C)O)[C@@H](C)CC)[C@@H](C)CC)C(C)C)C(C)C
B2: SEQ ID NO: 16 (peptide)
peptide: IVLSLDVPIGLK([AEEA-AEEA-γGlu-C18 diacid])QKLLKQQRQRKERQQAEKNARILARV-NH2
modifications: N-terminus assumed
SMILES: CC[C@H](C)[C@H](N)C(=O)N[C@H](C(=O)N[C@@H](CC(C)C)C(=O)N[C@@H](CO)C(=O)N[C@@H](CC(C)C)C(=O)N[C@@H](CC(=O)O)C(=O)N[C@H](C(=O)N1CCC[C@H]1C(=O)N[C@H](C(=O)NCC(=O)N[C@@H](CC(C)C)C(=O)N[C@@H](CCCCNC(=O)COCCOCCNC(=O)COCCOCCNC(=O)CC[C@H](NC(=O)CCCCCCCCCCCCCCCCC(=O)O)C(=O)O)C(=O)N[C@@H](CCC(N)=O)C(=O)N[C@@H](CCCCN)C(=O)N[C@@H](CC(C)C)C(=O)N[C@@H](CC(C)C)C(=O)N[C@@H](CCCCN)C(=O)N[C@@H](CCC(N)=O)C(=O)N[C@@H](CCC(N)=O)C(=O)N[C@@H](CCCNC(=N)N)C(=O)N[C@@H](CCC(N)=O)C(=O)N[C@@H](CCCNC(=N)N)C(=O)N[C@@H](CCCCN)C(=O)N[C@@H](CCC(=O)O)C(=O)N[C@@H](CCCNC(=N)N)C(=O)N[C@@H](CCC(N)=O)C(=O)N[C@@H](CCC(N)=O)C(=O)N[C@@H](C)C(=O)N[C@@H](CCC(=O)O)C(=O)N[C@@H](CCCCN)C(=O)N[C@@H](CC(N)=O)C(=O)N[C@@H](C)C(=O)N[C@@H](CCCNC(=N)N)C(=O)N[C@H](C(=O)N[C@@H](CC(C)C)C(=O)N[C@@H](C)C(=O)N[C@@H](CCCNC(=N)N)C(=O)N[C@H](C(N)=O)C(C)C)[C@@H](C)CC)[C@@H](C)CC)C(C)C)C(C)C
B3: SEQ ID NO: 147 (peptide)
peptide: IVLSLD[dV]PIGLK([AEEA-AEEA-γGlu-C18 diacid])QILLKQERQKK[Aib]REQAETNKQILAQV-NH2
modifications: N-terminus assumed
SMILES: CC[C@H](C)[C@H](N)C(=O)N[C@H](C(=O)N[C@@H](CC(C)C)C(=O)N[C@@H](CO)C(=O)N[C@@H](CC(C)C)C(=O)N[C@@H](CC(=O)O)C(=O)N[C@@H](C(=O)N1CCC[C@H]1C(=O)N[C@H](C(=O)NCC(=O)N[C@@H](CC(C)C)C(=O)N[C@@H](CCCCNC(=O)COCCOCCNC(=O)COCCOCCNC(=O)CC[C@H](NC(=O)CCCCCCCCCCCCCCCCC(=O)O)C(=O)O)C(=O)N[C@@H](CCC(N)=O)C(=O)N[C@H](C(=O)N[C@@H](CC(C)C)C(=O)N[C@@H](CC(C)C)C(=O)N[C@@H](CCCCN)C(=O)N[C@@H](CCC(N)=O)C(=O)N[C@@H](CCC(=O)O)C(=O)N[C@@H](CCCNC(=N)N)C(=O)N[C@@H](CCC(N)=O)C(=O)N[C@@H](CCCCN)C(=O)N[C@@H](CCCCN)C(=O)NC(C)(C)C(=O)N[C@@H](CCCNC(=N)N)C(=O)N[C@@H](CCC(=O)O)C(=O)N[C@@H](CCC(N)=O)C(=O)N[C@@H](C)C(=O)N[C@@H](CCC(=O)O)C(=O)N[C@H](C(=O)N[C@@H](CC(N)=O)C(=O)N[C@@H](CCCCN)C(=O)N[C@@H](CCC(N)=O)C(=O)N[C@H](C(=O)N[C@@H](CC(C)C)C(=O)N[C@@H](C)C(=O)N[C@@H](CCC(N)=O)C(=O)N[C@H](C(N)=O)C(C)C)[C@@H](C)CC)[C@@H](C)O)[C@@H](C)CC)[C@@H](C)CC)C(C)C)C(C)C
B4: SEQ ID NO: 148 (peptide)
peptide: IVLSLDVPIGLK([AEEA-AEEA-γGlu-C18 diacid])QILLKQERQKK[Aib]REQAETNKRILERV-NH2
modifications: N-terminus assumed
SMILES: CC[C@H](C)[C@H](N)C(=O)N[C@H](C(=O)N[C@@H](CC(C)C)C(=O)N[C@@H](CO)C(=O)N[C@@H](CC(C)C)C(=O)N[C@@H](CC(=O)O)C(=O)N[C@H](C(=O)N1CCC[C@H]1C(=O)N[C@H](C(=O)NCC(=O)N[C@@H](CC(C)C)C(=O)N[C@@H](CCCCNC(=O)COCCOCCNC(=O)COCCOCCNC(=O)CC[C@H](NC(=O)CCCCCCCCCCCCCCCCC(=O)O)C(=O)O)C(=O)N[C@@H](CCC(N)=O)C(=O)N[C@H](C(=O)N[C@@H](CC(C)C)C(=O)N[C@@H](CC(C)C)C(=O)N[C@@H](CCCCN)C(=O)N[C@@H](CCC(N)=O)C(=O)N[C@@H](CCC(=O)O)C(=O)N[C@@H](CCCNC(=N)N)C(=O)N[C@@H](CCC(N)=O)C(=O)N[C@@H](CCCCN)C(=O)N[C@@H](CCCCN)C(=O)NC(C)(C)C(=O)N[C@@H](CCCNC(=N)N)C(=O)N[C@@H](CCC(=O)O)C(=O)N[C@@H](CCC(N)=O)C(=O)N[C@@H](C)C(=O)N[C@@H](CCC(=O)O)C(=O)N[C@H](C(=O)N[C@@H](CC(N)=O)C(=O)N[C@@H](CCCCN)C(=O)N[C@@H](CCCNC(=N)N)C(=O)N[C@H](C(=O)N[C@@H](CC(C)C)C(=O)N[C@@H](CCC(=O)O)C(=O)N[C@@H](CCCNC(=N)N)C(=O)N[C@H](C(N)=O)C(C)C)[C@@H](C)CC)[C@@H](C)O)[C@@H](C)CC)[C@@H](C)CC)C(C)C)C(C)C
B5: SEQ ID NO: 150 (peptide)
peptide: IVLSLD[dV]PIGLK([AEEA-AEEA-γGlu-C18 diacid])QILLKQERQKK[Aib]RQQAETNKRILERV-NH2
modifications: N-terminus assumed
SMILES: CC[C@H](C)[C@H](N)C(=O)N[C@H](C(=O)N[C@@H](CC(C)C)C(=O)N[C@@H](CO)C(=O)N[C@@H](CC(C)C)C(=O)N[C@@H](CC(=O)O)C(=O)N[C@@H](C(=O)N1CCC[C@H]1C(=O)N[C@H](C(=O)NCC(=O)N[C@@H](CC(C)C)C(=O)N[C@@H](CCCCNC(=O)COCCOCCNC(=O)COCCOCCNC(=O)CC[C@H](NC(=O)CCCCCCCCCCCCCCCCC(=O)O)C(=O)O)C(=O)N[C@@H](CCC(N)=O)C(=O)N[C@H](C(=O)N[C@@H](CC(C)C)C(=O)N[C@@H](CC(C)C)C(=O)N[C@@H](CCCCN)C(=O)N[C@@H](CCC(N)=O)C(=O)N[C@@H](CCC(=O)O)C(=O)N[C@@H](CCCNC(=N)N)C(=O)N[C@@H](CCC(N)=O)C(=O)N[C@@H](CCCCN)C(=O)N[C@@H](CCCCN)C(=O)NC(C)(C)C(=O)N[C@@H](CCCNC(=N)N)C(=O)N[C@@H](CCC(N)=O)C(=O)N[C@@H](CCC(N)=O)C(=O)N[C@@H](C)C(=O)N[C@@H](CCC(=O)O)C(=O)N[C@H](C(=O)N[C@@H](CC(N)=O)C(=O)N[C@@H](CCCCN)C(=O)N[C@@H](CCCNC(=N)N)C(=O)N[C@H](C(=O)N[C@@H](CC(C)C)C(=O)N[C@@H](CCC(=O)O)C(=O)N[C@@H](CCCNC(=N)N)C(=O)N[C@H](C(N)=O)C(C)C)[C@@H](C)CC)[C@@H](C)O)[C@@H](C)CC)[C@@H](C)CC)C(C)C)C(C)C
B6: SEQ ID NO: 151 (peptide)
peptide: IVLSLD[dV]PIGLK([AEEA-AEEA-γGlu-C18 diacid])QILLKQERQKK[Aib]REQAEKNKRILERV-NH2
modifications: N-terminus assumed
SMILES: CC[C@H](C)[C@H](N)C(=O)N[C@H](C(=O)N[C@@H](CC(C)C)C(=O)N[C@@H](CO)C(=O)N[C@@H](CC(C)C)C(=O)N[C@@H](CC(=O)O)C(=O)N[C@@H](C(=O)N1CCC[C@H]1C(=O)N[C@H](C(=O)NCC(=O)N[C@@H](CC(C)C)C(=O)N[C@@H](CCCCNC(=O)COCCOCCNC(=O)COCCOCCNC(=O)CC[C@H](NC(=O)CCCCCCCCCCCCCCCCC(=O)O)C(=O)O)C(=O)N[C@@H](CCC(N)=O)C(=O)N[C@H](C(=O)N[C@@H](CC(C)C)C(=O)N[C@@H](CC(C)C)C(=O)N[C@@H](CCCCN)C(=O)N[C@@H](CCC(N)=O)C(=O)N[C@@H](CCC(=O)O)C(=O)N[C@@H](CCCNC(=N)N)C(=O)N[C@@H](CCC(N)=O)C(=O)N[C@@H](CCCCN)C(=O)N[C@@H](CCCCN)C(=O)NC(C)(C)C(=O)N[C@@H](CCCNC(=N)N)C(=O)N[C@@H](CCC(=O)O)C(=O)N[C@@H](CCC(N)=O)C(=O)N[C@@H](C)C(=O)N[C@@H](CCC(=O)O)C(=O)N[C@@H](CCCCN)C(=O)N[C@@H](CC(N)=O)C(=O)N[C@@H](CCCCN)C(=O)N[C@@H](CCCNC(=N)N)C(=O)N[C@H](C(=O)N[C@@H](CC(C)C)C(=O)N[C@@H](CCC(=O)O)C(=O)N[C@@H](CCCNC(=N)N)C(=O)N[C@H](C(N)=O)C(C)C)[C@@H](C)CC)[C@@H](C)CC)[C@@H](C)CC)C(C)C)C(C)C

biological target: human corticotropin-releasing factor 2α (CRF2 α receptor) (human), Q13324; test: cell-based or functional assay
Sequence (Q13324 20-411): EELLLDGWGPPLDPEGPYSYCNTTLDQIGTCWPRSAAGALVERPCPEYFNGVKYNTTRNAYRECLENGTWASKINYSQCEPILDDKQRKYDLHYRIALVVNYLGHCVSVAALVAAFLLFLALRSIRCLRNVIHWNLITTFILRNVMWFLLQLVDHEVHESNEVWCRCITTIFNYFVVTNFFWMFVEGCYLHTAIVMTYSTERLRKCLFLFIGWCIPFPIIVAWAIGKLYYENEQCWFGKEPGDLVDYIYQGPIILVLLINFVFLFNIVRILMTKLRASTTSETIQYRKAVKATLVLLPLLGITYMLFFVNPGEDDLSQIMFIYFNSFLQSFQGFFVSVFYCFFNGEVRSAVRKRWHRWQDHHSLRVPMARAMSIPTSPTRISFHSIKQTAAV

Binder	EC50 [nM], 0% HSA [nM]	EC50 [nM], 0.1% HSA [nM]
B1	0.06	2.54
B2	0.3	
B3	0.18	8.17
B4	0.29	14.3
B5	0.07	3.99
B6	0.08	3.87
